Experimental findings from patent US20200362051A1 (CRESCENDO BIOLOGICS, published 2020) are described below.

Experiment [1] concerns the target T1, rhesus CD137-human IgG1 Fc tagged protein (rhesus; human, UniProt F6W5G6 24-186).
T1 construct: also called rhesus CD137Fc; rhesus CD137Fc recombinant protein
T1 sequence: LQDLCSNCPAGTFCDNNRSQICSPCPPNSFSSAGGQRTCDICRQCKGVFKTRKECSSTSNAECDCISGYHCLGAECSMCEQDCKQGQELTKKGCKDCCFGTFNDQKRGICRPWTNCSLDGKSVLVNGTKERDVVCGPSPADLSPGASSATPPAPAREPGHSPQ
Description: SPR (Biacore T200), single cycle kinetics, rhesus CD137-Fc captured on Protein G chip, 25 C, 1:1 fit; average ± SD. As for the experimental part:
(§1) The Biacore T200 instrument was used to study the interaction between VH with human and rhesus CD137-human IgG1 Fc tagged protein by surface plasmon resonance (SPR). Single cycle kinetics assays used to evaluate the kinetics and affinity of the interaction. Experiments were performed at 25° C. in HBS-EP+ assay buffer with a flow rate of 30 μl/minute. A Protein G chip was used to capture the Fc tagged recombinant CD137 diluted to 2 μg/ml to one of the flow cells over 7 seconds. A second flow cell without any captured CD137 was used as the reference cell. A five point, three-fold dilution series of VH was made with a top concentration of 60 nM. The binding kinetics were followed by flowing these over the chip surface. The contact time for each of the binding steps was 180 seconds and the dissociation step was 1800 and 3600 seconds for rhesus and human CD137 respectively. After each run, the sensors were regenerated with glycine pH 1.5 to remove the captured CD137. The data was fitted to a 1:1 binding model after double reference subtraction using the Biacore T200 Evaluation software.

Experiment [2] has as its target T2, human PSMA expressed on cells (human, UniProt Q04609 1-750).
T2 construct: Type II membrane glycoprotein; also called CHO human PSMA; CHO PSMA
Description: dual-binding cell ELISA: CHO-PSMA cells, bound construct detected with 1 nM CD137huFc and anti-huFc-HRP; average ± SD, n=3. The procedure:
(§2) Dual target engagement of CD137 and PSMA by the bispecific molecules was assessed using an ELISA format and by flow cytometry with T cells. For ELISA, CHO-PSMA cells (20000/well) were seeded into 96 well plates (Greiner cat no. 353872) in Hams F12 supplemented with L-Glutamine+Blasticidin+Tetracycline and incubated at 37° C. with 5% CO₂ overnight. All subsequent steps were performed at room temperature and included washes with PBS between each step. Plates were blocked with PBS/0.1% BSA for 1 hour then serially diluted Humabody® VH were added and allowed to bind for 1 hour. Following removal of unbound VH, 1 nM CD137huFc (Acro Biosystems cat no. 41B-H5258) was added to the wells and incubated for 1 hour. A 1:3000 dilution of Anti-huFc-HRP (Jackson ImmunoResearch cat no. 109-035-098) was subsequently added for 1 hour and plates developed by addition of TMB. The reaction was stopped by addition of 0.5M sulphuric acid and plates read on BMG PheraStar at Absorbance 450 nm. […] Human CD8+ T cells pre-stimulated for 48 hours with PMA/ionomycin were washed with FACS buffer (PBS supplemented with 10% human serum and 0.05% sodium azide) by centrifugation. Serially diluted bispecific and trispecific Humabody VH construct were added to the cells for 1 hour on ice. Plates were washed with FACS buffer then detection mix containing 5 nM biotinylated-PSMA, 20 nM Streptavidin AlexaFluor488 and Live/Dead NearIR cell stain dilution added. Plates were incubated at 4° C. for 1 hour then washed twice with FACS buffer by centrifugation. Cells were fixed by addition 1× BD Cell fix solution, then washed twice with PBS by centrifugation and the cell pellets resuspended in PBS. Fluorescence was measured in the RL2-H channels (Live/Dead stain) and BL1-H channel (AlexaFluor488 stain) on the iQue Plus Screener (IntelliCyt). The bispecific and trispecific molecules were able to simultaneously bind human CD8+ T cells and PSMA protein.

Experiment [3] addresses T3, human CD137 expressed on cells (human, UniProt Q07011 24-255).
T3 construct: Whole entry with its signal peptide; also called 4-1BB; TNFRS9
The experiment is described as follows: dual-binding flow cytometry: pre-stimulated human CD8+ T cells, bound construct detected with 5 nM biotinylated-PSMA and streptavidin-AlexaFluor488; average ± SD, at least 6 donors. As for the experimental part: as §2, with “Serially diluted bispecific and trispecific Humabody VH construct were added to the cells for 1 hour on ice. Plates were washed with FACS buffer then detection mix containing 5 nM biotinylated-PSMA, 20 nM Streptavidin AlexaFluor488 and Live/Dead NearIR cell stain dilution added. Plates were incubated at 4° C. for 1 hour then washed twice with FACS buffer by centrifugation. Cells were fixed by addition 1× BD Cell fix solution, then washed twice with PBS by centrifugation and the cell pellets resuspended in PBS.” left out, “The bispecific and trispecific molecules were able to simultaneously bind human CD8+ T cells and PSMA protein.” left out
A general note: In flow cytometry, cells or beads pass a laser one at a time.

In experiment [4] the target is T4, human CD137-human Fc chimeric protein (Acro Biosystems cat no. 41B-H5258) (human, UniProt Q07011 24-186).
T4 construct: Bought protein; also called CD137-Fc tag protein; CD137huFc; not shown: human IgG1 Fc
The experiment is described as follows: dual binding cell based ELISA: serially diluted VH on plated CHO human PSMA cells, then 1 nM CD137huFc, detection with anti human Fc-HRP, absorbance 450 nm. As for the experimental part:
Association 1—Binding of the trispecific molecule to CD137Fc captured on protein G biosensors. Association 2—binding of Human serum Albumin, Association 3—Binding of PSMA in the presence of Human serum albumin to minimise HSA dissociation. […] Dual target engagement of CD137 and PSMA by the bispecific molecules was assessed using an ELISA format and by flow cytometry with T cells. For ELISA, CHO-PSMA cells (20000/well) were seeded into 96 well plates (Greiner cat no. 353872) in Hams F12 supplemented with L-Glutamine+Blasticidin+Tetracycline and incubated at 37° C. with 5% CO₂ overnight. All subsequent steps were performed at room temperature and included washes with PBS between each step. Plates were blocked with PBS/0.1% BSA for 1 hour then serially diluted Humabody® VH were added and allowed to bind for 1 hour. Following removal of unbound VH, 1 nM CD137huFc (Acro Biosystems cat no. 41B-H5258) was added to the wells and incubated for 1 hour. A 1:3000 dilution of Anti-huFc-HRP (Jackson ImmunoResearch cat no. 109-035-098) was subsequently added for 1 hour and plates developed by addition of TMB. The reaction was stopped by addition of 0.5M sulphuric acid and plates read on BMG PheraStar at Absorbance 450 nm. […] Fluorescence was measured in the RL2-H channels (Live/Dead stain) and BL1-H channel (AlexaFluor488 stain) on the iQue Plus Screener (IntelliCyt). […]
(In general: An ELISA detects its analyte on a solid surface through an enzyme-linked reagent.)

For experiment [5], the target named is T5, cynomolgus PSMA expressed on CHO cells (cynomolgus, UniProt A0A2K5VNZ0 1-750).
T5 construct: whole, on cells; also called CHO cynomolgus PSMA cells
Description: FMAT, CHO cynomolgus PSMA cells, detection with CD137huFc and anti human Fc-Alexa Fluor-488; n=3.

The target in experiment [6] is T1, rhesus CD137-human IgG1 Fc tagged …. The experiment is described as follows: SPR (Biacore T200), single cycle kinetics, rhesus CD137-Fc captured on Protein G chip, 25 C, 1:1 fit. As for the experimental part:
as §1
Background: Surface plasmon resonance follows binding to a sensor surface in real time, without labels.

T2 sequence (Q04609 whole entry): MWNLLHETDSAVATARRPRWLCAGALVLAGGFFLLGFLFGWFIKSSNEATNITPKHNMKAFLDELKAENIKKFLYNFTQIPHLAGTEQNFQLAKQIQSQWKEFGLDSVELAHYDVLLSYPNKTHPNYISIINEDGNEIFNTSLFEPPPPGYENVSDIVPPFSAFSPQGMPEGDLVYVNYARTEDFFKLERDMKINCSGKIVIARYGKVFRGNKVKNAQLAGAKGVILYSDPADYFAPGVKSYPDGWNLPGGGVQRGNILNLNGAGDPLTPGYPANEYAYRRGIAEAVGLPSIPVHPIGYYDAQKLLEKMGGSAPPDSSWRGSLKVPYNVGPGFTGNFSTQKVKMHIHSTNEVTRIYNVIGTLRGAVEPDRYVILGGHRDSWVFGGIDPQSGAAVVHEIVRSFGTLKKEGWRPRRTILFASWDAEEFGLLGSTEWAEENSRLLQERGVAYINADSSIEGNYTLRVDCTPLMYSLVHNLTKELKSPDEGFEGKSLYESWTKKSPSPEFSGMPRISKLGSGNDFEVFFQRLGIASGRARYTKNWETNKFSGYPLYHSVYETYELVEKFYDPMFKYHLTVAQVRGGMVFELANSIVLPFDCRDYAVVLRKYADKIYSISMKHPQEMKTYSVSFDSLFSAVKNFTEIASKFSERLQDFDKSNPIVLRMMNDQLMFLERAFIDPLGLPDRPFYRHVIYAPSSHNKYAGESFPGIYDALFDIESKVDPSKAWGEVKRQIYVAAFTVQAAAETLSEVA
T3 sequence (Q07011 24-255 limits assumed): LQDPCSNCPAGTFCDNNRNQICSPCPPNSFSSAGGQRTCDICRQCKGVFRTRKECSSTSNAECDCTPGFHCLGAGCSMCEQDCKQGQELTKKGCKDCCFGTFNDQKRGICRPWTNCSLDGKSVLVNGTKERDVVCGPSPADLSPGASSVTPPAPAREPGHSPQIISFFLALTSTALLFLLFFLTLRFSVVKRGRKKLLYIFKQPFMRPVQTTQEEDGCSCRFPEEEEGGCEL

B1: Humabody 1.113 (VHH)
VHH: EVQLVESGGGLVQPGGSLRLSCAASGFTLSNYWMNWVRQAPGKGLEWVANINQDGSERYYVDSVKGRFTISRDNAKNSLYLQMNSLRAEDTAVYYCARGGEGYGVDHYGLDVSGQGTTVTVSS
In experiment [1], B1 yielded a Kd of 0.27 nM, a koff of 0.00028 s⁻¹ and a kon of 1.1e+06 M⁻¹ s⁻¹.

B2: 4.1-6GS-1.113 (bispecific antibody)
chain: EVQLVESGGGVVQPGRSLRLSCAASGFSFSGYGMHWVRQAPGKGLEWVAYISYDGSNKYYADSVKGRFTISRDNSKNTLYLQMNSLRAEDTAVYYCAKDPAWGLRLGESSSYDFDIWGQGTMVTVSSGGGGSGGGGSGGGGSGGGGSGGGGSGGGGSEVQLVESGGGLVQPGGSLRLSCAASGFTLSNYWMNWVRQAPGKGLEWVANINQDGSERYYVDSVKGRFTISRDNAKNSLYLQMNSLRAEDTAVYYCARGGEGYGVDHYGLDVSGQGTTVTVSS
notes: the tested construct may be that one
Consider B2, for which the 50% effective concentration (EC50) in experiment [2] worked out at 0.57 nM; in experiment [3], 1.3 nM.

B3: 4.1-6GS-VH HSA 6GS-1.113-4GS (bispecific antibody)
chain: EVQLVESGGGVVQPGRSLRLSCAASGFSFSGYGMHWVRQAPGKGLEWVAYISYDGSNKYYADSVKGRFTISRDNSKNTLYLQMNSLRAEDTAVYYCAKDPAWGLRLGESSSYDFDIWGQGTMVTVSSGGGGSGGGGSGGGGSGGGGSGGGGSGGGGSEVQLVESGGGLVQPGRSLRLSCAASGFTFHHYAMHWVRQAPGKGLEWVSGISWNGNKITYADSVKGRFTISRDNAKNSLYLQMNSLRAEDTALYYCVRDSSLFIVGAPTFEHWGRGTLVTVSSGGGGSGGGGSGGGGSGGGGSGGGGSGGGGSEVQLVESGGGLVQPGGSLRLSCAASGFTLSNYWMNWVRQAPGKGLEWVANINQDGSERYYVDSVKGRFTISRDNAKNSLYLQMNSLRAEDTAVYYCARGGEGYGVDHYGLDVSGQGTTVTVSSGGGGSGGGGSGGGGSGGGGS
notes: Trispecific single-chain fusion of three VH domains (PSMA, human serum albumin, CD137)
On to B3, for which the half-maximal effective concentration (EC50) in experiment [2] was 1.1 nM. In other words, the single-digit nanomolar range.

B4: Humabody VH 4.1 (VHH)
VHH: EVQLVESGGGVVQPGRSLRLSCAASGFSFSGYGMHWVRQAPGKGLEWVAYISYDGSNKYYADSVKGRFTISRDNSKNTLYLQMNSLRAEDTAVYYCAKDPAWGLRLGESSSYDFDIWGQGTMVTVSS
For B4, the binding result in experiment [4] is reported as “no binding (tested: 1e-7 M (log10 -7))”.

B5: 4.1-6GS-1.113-6GS-VH (HSA)-4GS (bispecific antibody)
chain: EVQLVESGGGVVQPGRSLRLSCAASGFSFSGYGMHWVRQAPGKGLEWVAYISYDGSNKYYADSVKGRFTISRDNSKNTLYLQMNSLRAEDTAVYYCAKDPAWGLRLGESSSYDFDIWGQGTMVTVSSGGGGSGGGGSGGGGSGGGGSGGGGSGGGGSEVQLVESGGGLVQPGGSLRLSCAASGFTLSNYWMNWVRQAPGKGLEWVANINQDGSERYYVDSVKGRFTISRDNAKNSLYLQMNSLRAEDTAVYYCARGGEGYGVDHYGLDVSGQGTTVTVSSGGGGSGGGGSGGGGSGGGGSGGGGSGGGGSEVQLVESGGGLVQPGRSLRLSCAASGFTFHHYAMHWVRQAPGKGLEWVSGISWNGNKITYADSVKGRFTISRDNAKNSLYLQMNSLRAEDTALYYCVRDSSLFIVGAPTFEHWGRGTLVTVSSGGGGSGGGGSGGGGSGGGGS
notes: Trispecific single-chain fusion of three VH domains (PSMA, CD137, human serum albumin)
The molecule B5 displayed an EC50 in experiment [2] of 2.2 nM. The molecule further showed an EC50 in experiment [5] of 0.57 nM. For the same molecule, in experiment [6], the equilibrium dissociation constant (Kd) turned out to be 0.12 nM, the off-rate constant (koff) worked out at 5.2e-05 s⁻¹ and the association rate constant (kon) turned out to be 440000 M⁻¹ s⁻¹.

The Kd is the concentration at which binding is half-saturated. The term koff denotes the first-order rate constant of dissociation. As usually defined, the kon is the second-order rate constant of association. By EC50 is commonly meant the concentration that produces a half-maximal response.
